Measurements reported in patent US20160264662A1 (US Dept. of Health and Human Services, published 2016).

T1: recombinant human TEM8 ectodomain (human, UniProt Q9H6X2 33-321)
T1 construct: also called TEM8-ED; Tumor Endothelial Marker 8
T1 sequence: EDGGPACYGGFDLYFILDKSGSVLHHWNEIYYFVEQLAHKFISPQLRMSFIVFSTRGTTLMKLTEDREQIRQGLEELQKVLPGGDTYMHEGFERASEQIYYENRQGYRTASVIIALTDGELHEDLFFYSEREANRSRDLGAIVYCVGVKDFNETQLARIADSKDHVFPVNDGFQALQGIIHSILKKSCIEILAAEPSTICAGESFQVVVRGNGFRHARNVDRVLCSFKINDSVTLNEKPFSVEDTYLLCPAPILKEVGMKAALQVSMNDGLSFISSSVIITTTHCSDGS


What was measured:
[1] = molecular target: recombinant TEM8 (AP-TEM8); assay: ELISA-type titration of m825-MMAE on recombinant AP-TEM8; absorbance at 450 nm against Log (ng/well)
[2] = molecular target: T1, recombinant human TEM8 ectodomain; assay: SPR (Biacore), antibody in IgG1 format, recombinant human TEM8 ectodomain; apparent KD
[3] = molecular target: T2, 293 mCMG2 (mouse, UniProt Q6DFX2); assay: flow cytometry (FACS), 293 cells expressing mCMG2 against parental 293
T2 construct: expressed on human embryonic kidney 293 cells; also called mouse CMG2; mouse ANTXR2 expressed on 293 cells
T2 sequence (Q6DFX2 32-487 limits assumed): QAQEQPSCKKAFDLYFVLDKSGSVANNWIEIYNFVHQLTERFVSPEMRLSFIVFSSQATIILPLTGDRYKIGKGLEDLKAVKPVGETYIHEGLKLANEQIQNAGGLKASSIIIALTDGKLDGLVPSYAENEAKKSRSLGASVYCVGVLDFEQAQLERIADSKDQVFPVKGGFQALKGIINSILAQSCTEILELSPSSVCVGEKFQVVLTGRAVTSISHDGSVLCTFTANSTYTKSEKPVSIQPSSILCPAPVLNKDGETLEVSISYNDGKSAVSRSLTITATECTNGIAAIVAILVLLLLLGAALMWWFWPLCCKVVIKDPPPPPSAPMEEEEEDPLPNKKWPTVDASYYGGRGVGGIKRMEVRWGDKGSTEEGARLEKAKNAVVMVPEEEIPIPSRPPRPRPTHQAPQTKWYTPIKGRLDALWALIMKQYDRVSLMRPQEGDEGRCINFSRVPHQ

[4] = molecular target: T3, human CMG2 (hCMG2) expressed on CHO or 293 cells (human, UniProt P58335 34-489); assay: flow cytometry (FACS), CHO cells expressing hCMG2 against parental CHO
T3 construct: whole, on cells; also called ANTXR2
T3 sequence (P58335 34-489): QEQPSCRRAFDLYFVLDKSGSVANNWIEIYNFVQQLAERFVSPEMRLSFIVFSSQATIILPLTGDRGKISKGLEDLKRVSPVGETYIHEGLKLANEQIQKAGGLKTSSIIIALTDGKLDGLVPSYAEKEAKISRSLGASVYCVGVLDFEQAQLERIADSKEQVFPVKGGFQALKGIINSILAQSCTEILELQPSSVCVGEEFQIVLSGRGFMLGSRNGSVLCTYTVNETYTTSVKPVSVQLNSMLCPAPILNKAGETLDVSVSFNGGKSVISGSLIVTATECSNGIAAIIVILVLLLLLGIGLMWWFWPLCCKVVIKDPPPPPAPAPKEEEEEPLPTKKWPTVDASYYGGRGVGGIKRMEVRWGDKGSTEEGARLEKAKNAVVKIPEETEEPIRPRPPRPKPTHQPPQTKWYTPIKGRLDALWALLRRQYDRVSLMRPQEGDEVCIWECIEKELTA

Binder | EC50 (read off the curve) [1] [ng/well] | Kd [2] [nM] | binding result [3] | binding result [4]
m825-MMAE conjugate (m825 antibody in human IgG1 format conjugated to MMAE) (other, MMAE with stretcher unit, Val-Cit peptide cleavage site and spacer, attached to thiol groups formed by partial reduction of inter-chain disulfide bonds (positions not stated), also called anti-TEM8-MMAE) VH: QVQLVQSGAEVKKPGTSVKVSCKVPGYTFSSYAISWVRQAPGQGLEWMGGIIPIFGTTNYAQKFQGRVTITGEESTSTVYMELSSLRSEDTAVYYCARDTDYMFDYWGQGTLVTVSS VL: SSELTQDPVVSVALGETVSITCQGDNLRDFYASWYQQKPGQAPLLVMYGKNRRPSGIPDRFSGSTSGNTLSLTITGAQAEDEADYYCSSRDNSKHVVFGGGTKVTVL | ~0.5 |  |  | 
m825 antibody in human IgG1 format (antibody, V domains shown, also called m825 mAb; human m825-IgG1) VH: QVQLVQSGAEVKKPGTSVKVSCKVPGYTFSSYAISWVRQAPGQGLEWMGGIIPIFGTTNYAQKFQGRVTITGEESTSTVYMELSSLRSEDTAVYYCARDTDYMFDYWGQGTLVTVSS VL: SSELTQDPVVSVALGETVSITCQGDNLRDFYASWYQQKPGQAPLLVMYGKNRRPSGIPDRFSGSTSGNTLSLTITGAQAEDEADYYCSSRDNSKHVVFGGGTKVTVL |  | 0.034 |  | 
m822 antibody in human IgG1 format (antibody, V domains shown, also called m822 mAb) VH: QVQLVQSGAEVKKPGASVKVSCKVSGYTFSSYAISWVRQAPGQGLEWMGGIIPIFGTANYAQKFQGRVTITADESTSTAYMELSSLRSEDTAVYYCARDTDYMFDYWGQGTLVTVSS VL: SSELTQDPVVSVALGETVSITCQGDNLRDFYASWYQQKPGQAPLLVMYGKNRRPSGIPDRFSGSTSGNTLSLTITGAQAEDEADYYCSSRDNSKHVVFGGGTKVTVL |  | 35 |  | 
m830 antibody in human IgG1 format (antibody, V domains shown, also called m830 mAb; human m830-IgG1) VH: EVQLVESGGGVVQPGRSVRLSCAASGFTFSTYTMHWVRQAPGKGLEWVAIISNDGSNKYYADPVRGRFTISRDNSKNTLYLQMNSLRAEDTAVYYCVRGSSWYRGNWFDPWGQGTLVTVSS VL: DIQMTQSPSSLSASVGDRVTIACRASQTISRYLNWYQQKPGKAPKLLIYAASSLQSGVSSRFSGSGSGTEFTLTISSLQPEDFATYFCQQTYSPPITFGQGTRLEIKR |  | 12 | no binding | no binding
m863 antibody in human IgG1 format (antibody, V domains shown, also called m863 mAb) VH: EVQLVETGAEVKKPGASVKVSCKASGYTFTGYYMHWVRQAPGQGLEWMGWINPTSGSTNYAQKFQGRVTMTRDTSISTAYMELSGLRSDDTAVYYCVRDPGSPKWLAFDPWGQGTLVTVSS VL: DIQLTQSPSSLSASVGDRVTITCRASRAISRYLNWYQQKPGKAPKLLIYAASSLQSGVSSRFSGSGSGTEFTLTISSLQPEDFATYFCQQTYSPPITFGQGTRLEIKR |  | 1.2 | no binding | no binding
